{"source": "patent US20040265915A1", "about": "“Method to identify regulators of cellular activation using Bcl10” (priority 2003, published 2004)", "test_system": "Bcl10-YFP POLKADOTS formation", "test": "Bcl10-YFP POLKADOTS formation in antigen-stimulated D10 T cells, fluorescence microscopy", "assay_type": "cell-based, murine", "conditions": "D10 T cells with conalbumin-loaded CH12 B cells (100 μg/ml), fixed after 20 min, >200 T cells counted, FIG. 4", "experimental": "D10-IL2 (henceforth referred to as D10) is an IL-2 dependent subclone of the CD4^+ T cell clone D10 (16), maintained as described (17). Primary T cell blasts were prepared by stimulation of spleen and lymph node cells with 100 μg/ml plate-bound anti-TCRP for 48 hr, with IL-2 added for the final 24 hr of stimulation. CH12H-2^k B cells and CHb H-2^b B cells (18) were maintained as described previously (17).\nMurine PKCθ was fused to a C-terminal linker (GRVELGR; SEQ ID NO:7) followed by GFP or CFP (19), modified by mutations that improve folding at 37° C. (20). Two I.M.A.G.E. expressed sequence tag (EST) clones encoding murine Bcl10 were purchased (2123397 and 3026026; ResGen). Clone 3026026 was used for PCR amplification of Bc 10, adding the C-terminal linker GR, which was then fused to the previously described modified YFP gene (17). […]\nThe inventors next examined whether formation of Bcl10 POLKADOTS is PKC-dependent (FIG. 4 and FIG. 5). […] Cells were fixed after 20 minutes and examined by fluorescence microscopy. For each group, >200 T cells were counted, and percentages with and without POLKADOTS were determined.\nCH12 B cells that had been pre-incubated with no antigen or with 250 μg/ml conalbumin protein were then added. Cells were fixed after 30 min and examined by fluorescence microscopy. […]", "data": [{"molecule": "conalbumin: conalbumin protein, specific antigen loaded on CH12 B cells to stimulate D10 T cells (protein, UniProt P02789 20-705, looked up) Ovotransferrin: APPKSVIRWCTISSPEEKKCNNLRDLTQQERISLTCVQKATYLDCIKAIANNEADAISLDGGQAFEAGLAPYKLKPIAAEVYEHTEGSTTSYYAVAVVKKGTEFTVNDLQGKTSCHTGLGRSAGWNIPIGTLLHRGAIEWEGIESGSVEQAVAKFFSASCVPGATIEQKLCRQCKGDPKTKCARNAPYSGYSGAFHCLKDGKGDVAFVKHTTVNENAPDQKDEYELLCLDGSRQPVDNYKTCNWARVAAHAVVARDDNKVEDIWSFLSKAQSDFGVDTKSDFHLFGPPGKKDPVLKDLLFKDSAIMLKRVPSLMDSQLYLGFEYYSAIQSMRKDQLTPSPRENRIQWCAVGKDEKSKCDRWSVVSNGDVECTVVDETKDCIIKIMKGEADAVALDGGLVYTAGVCGLVPVMAERYDDESQCSKTDERPASYFAVAVARKDSNVNWNNLKGKKSCHTAVGRTAGWVIPMGLIHNRTGTCNFDEYFSEGCAPGSPPNSRLCQLCQGSGGIPPEKCVASSHEKYFGYTGALRCLVEKGDVAFIQHSTVEENTGGKNKADWAKNLQMDDFELLCTDGRRANVMDYRECNLAEVPTHAVVVRPEKANKIRDLLERQEKRFGVNGSEKSKFMMFESQNKDLLFKDLTKCLFKVREGTTYKEFLGDKFYTVISSLKTCNPSDILQMCSFLEGK", "values": [{"measurement": "cells with Bcl10-YFP POLKADOTS", "value": "over 80%"}]}]}
